Assay results from US20240383974A1 (BETTA PHARMACEUTICALS, published 2024).
Positions count from the first letter of the chain named. Where two headings read alike, the source gives them in different places. Blank lines part the entries; values can stand above or below the binder they belong to.

Assays:
human PD-L1 [1] = target: T1, human PD-L1 (human, UniProt Q9NZQ7 19-290); assay: FACS on MC38-hPD-L1 cells
T1 construct: whole, on cells; also called hPD-L1; PD-L1 antigen on MDA-MB-231 cells

[2] = target: T2, GARP-TGF-β complex (293-GARP/TGFβ stably transfected cells) (UniProt Q14392 20-662; P01137 30-390); assay: FACS on 293-GARP/TGFβ cells
T2 construct: whole, on cells; Complex of GARP and (latent) TGF-β on the cell surface; also called 293-GARP/TGFβ cell; 293F-GAPR/TGFβ/αvβ6 cells
T2 sequence (Q14392 20-662, chain 1 of 2): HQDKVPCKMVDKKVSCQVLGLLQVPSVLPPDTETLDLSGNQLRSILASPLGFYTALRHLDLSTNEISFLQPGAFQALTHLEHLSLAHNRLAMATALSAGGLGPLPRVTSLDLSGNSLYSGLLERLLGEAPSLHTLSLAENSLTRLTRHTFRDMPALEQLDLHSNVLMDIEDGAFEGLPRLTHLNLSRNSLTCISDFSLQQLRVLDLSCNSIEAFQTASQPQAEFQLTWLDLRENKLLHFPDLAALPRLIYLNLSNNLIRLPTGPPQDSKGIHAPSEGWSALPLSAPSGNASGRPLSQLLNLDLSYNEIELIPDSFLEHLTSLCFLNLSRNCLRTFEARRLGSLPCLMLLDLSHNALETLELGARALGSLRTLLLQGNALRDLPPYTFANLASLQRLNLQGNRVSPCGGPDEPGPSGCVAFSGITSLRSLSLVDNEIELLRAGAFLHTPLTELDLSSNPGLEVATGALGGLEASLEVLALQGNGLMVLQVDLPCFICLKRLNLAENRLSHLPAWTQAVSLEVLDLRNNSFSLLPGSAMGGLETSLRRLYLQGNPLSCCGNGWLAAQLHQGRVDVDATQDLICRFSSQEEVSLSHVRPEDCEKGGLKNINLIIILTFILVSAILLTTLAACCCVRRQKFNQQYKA
T2 sequence (P01137 30-390, chain 2 of 2): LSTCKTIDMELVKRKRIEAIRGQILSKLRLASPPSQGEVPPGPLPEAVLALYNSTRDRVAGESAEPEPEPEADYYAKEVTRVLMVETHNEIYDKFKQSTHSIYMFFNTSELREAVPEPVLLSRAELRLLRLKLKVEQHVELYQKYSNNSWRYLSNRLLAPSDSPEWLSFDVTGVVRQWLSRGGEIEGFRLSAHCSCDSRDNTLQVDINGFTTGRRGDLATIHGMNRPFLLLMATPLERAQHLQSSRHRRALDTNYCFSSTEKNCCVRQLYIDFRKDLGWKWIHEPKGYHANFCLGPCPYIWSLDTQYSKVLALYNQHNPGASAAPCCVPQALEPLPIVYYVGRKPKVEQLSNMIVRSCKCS

[3] = target: T3, human transforming growth factor β1 (human, UniProt P01137 279-390); assay: ELISA, plate-coated hTGF-β1
T3 construct: Coated on the ELISA plate at 100 ng/well; also called hTGF-β1; TGF-β
T3 sequence (P01137 279-390 limits assumed): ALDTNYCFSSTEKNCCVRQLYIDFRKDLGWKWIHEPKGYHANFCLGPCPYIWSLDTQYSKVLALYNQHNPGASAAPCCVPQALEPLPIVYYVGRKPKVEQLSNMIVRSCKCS

[4] = target: T2, GARP-TGF-β complex (293-GARP/TGFβ …); assay: FACS on 293-GARP/TGFβ cells; remark: listed apart in the source
human PD-L1 [5] = target: T1, human PD-L1; assay: FACS on PD-L1-expressing cells, similar method
PD-L1-Biotin = PD-L1-Biotin (UniProt Q9NZQ7 19-238, limits assumed, biotin label (site not stated)); assay: competitive FACS: blocks PD-L1-Biotin binding to 293T-PD-1 cells
Sequence of PD-L1-Biotin (Q9NZQ7 19-238 limits assumed): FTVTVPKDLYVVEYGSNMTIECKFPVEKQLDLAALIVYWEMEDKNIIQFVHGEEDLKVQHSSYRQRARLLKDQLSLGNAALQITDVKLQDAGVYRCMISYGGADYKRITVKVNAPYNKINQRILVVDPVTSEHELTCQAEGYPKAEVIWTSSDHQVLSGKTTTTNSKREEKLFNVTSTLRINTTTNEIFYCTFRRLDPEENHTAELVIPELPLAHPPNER

human PD-L1 [6] = target: T1, human PD-L1; assay: competitive FACS: blocks human-CD80-mFc binding to 293T-PD-L1 cells
human PD-L1 [7] = target: T1, human PD-L1; assay: FACS on MDA-MB-231 cells (endogenous PD-L1)
[8] = target: T2, GARP-TGF-β complex (293-GARP/TGFβ …); assay: FACS on 293-GARP/TGFβ cells; remark: listed apart in the source
[9] = target: T3, human transforming growth factor β1; assay: ELISA, plate-coated hTGF-β1; remark: listed apart in the source

T1 sequence (Q9NZQ7 19-290): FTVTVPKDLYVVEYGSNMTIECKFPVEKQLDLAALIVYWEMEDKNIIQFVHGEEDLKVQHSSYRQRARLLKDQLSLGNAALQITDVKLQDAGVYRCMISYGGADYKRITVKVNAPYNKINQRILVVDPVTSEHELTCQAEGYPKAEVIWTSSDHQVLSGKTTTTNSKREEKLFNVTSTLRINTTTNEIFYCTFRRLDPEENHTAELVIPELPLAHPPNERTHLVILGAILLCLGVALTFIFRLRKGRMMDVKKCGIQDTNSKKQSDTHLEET

EC50 [2]: 2.5 nM
EC50 [3]: < 2 nM
B1: antibody m202-hu (antibody, V domains shown)
VH: QVQLVQSGAEVKKPGASVKVSCKASGYTFTSYWMHWVKQAPGQGLEWIGNINPSNGDTNYNEKFKSKATLTVDKSTSTAYMELRSLRSDDTAVYYCARATYGSYGYFDVWGQGTLVTVSS
VL: DIVLTQSPDSLAVSLGERATINCRASESVTIIGTNLIQWFQQKPGQPPKLLIYHASNLETGVPDRFSGSGSRTDFTLTISSLQAEDVAVYYCLQSRQIPRTFGGGTKVEIK
notes: Humanized m202
binding result (human PD-L1 [1]): no binding (tested: initial concentration 200 nM)

EC50 [2]: 4 nM
EC50 [3]: < 2 nM
B2: antibody m301-hu (antibody, V domains shown)
VH: QVQLQESGPGLVKPSGTLSLTCAVSGFSLTTYGVTWVRQPPGKGLEWIGLIWGDGTTDYHSTFISRLTISKDKSKNQVSLKLSSVTAADTAVYYCASYYFAMHYWGQGTLVTVSS
VL: DIVMTQSPDSLAVSLGERATINCKSSQSLLNSRTQKNYLAWYQQKPGQSPKLLIYWASTRESGVPDRFSGSGSGTDFTLTISSLQAEDVAVYYCKQSYNLWTFGGGTKVEIK
notes: Humanized m301
binding result (human PD-L1 [1]): no binding (tested: initial concentration 200 nM)

EC50 [4]: 4.4 nM
B3: b305-H-Bhu-D2hu (bispecific antibody)
heavy: not shown
light: DIQMTQSPSSLSASVGDRVTITCRASQEISGYLSWLQQKPGGAPKRLIYAASTLDSGVPSRFSGSRSGTDYTLTISSLQPEDFATYYCLQYASYPTCTFGGGTKVEIKRTVAAPSVFIFPPSDEQLKSGTASVVCLLNNFYPREAKVQWKVDNALQSGNSQESVTEQDSKDSTYSLSSTLTLSKADYEKHKVYACEVTHQGLSSPVTKSFNRGEC
notes: Tandem architecture and constant regions as noted for b301-H-Bhu-D2hu

EC50 [8]: 2.5 nM
EC50 [9]: < 1 nM
B11: antibody m301 (antibody, V domains shown)
VH: QVQLKESGPGLVAPSQSLSITCTVSGFSLTTYGVTWVRQPPGKGLQWLGLIWGDGTTDYHSTFISRLSISKDKSKNQVFFKLNSLQTDDTATYYCASYYFAMHYWGQGTSVTVSS
VL: DIVMSQSPSSLAVSAGEKVTMNCKSSQSLLNSRTQKNYLAWYQQKPGQSPKLLIYWASTRESGVPDRFTGSGSGTDFTLTIISVQAEDLAVYYCKQSYNLWTFGGGTKLEIK

EC50 [2]: > 5 nM
EC50 [3]: 0.73 nM
B16: antibody m109-hu (antibody, V domains shown)
VH: EVQLVESGGGLVQPGGSLRLSCATSGFTFSDYYMYWVRQTPEKRLEWVAYISNGGGRTYYPDTVKGRFTISRDNAKNSLYLQMSRLRAEDTAVYYCARQKTNYGNYEEDYYAMGYWGQGTSVTVSS
VL: DIVLTQSPASLAVSLGQRATITCRASKSVSTSGYSYIHWYQQKPGQPPKLLIYLASNLESGVPARFSGSGSGTDFTLTINPVEEEDAATYYCQHSRELPLTFGAGTKLEIK
notes: Humanized m109

EC50 [4]: 1.6 nM
B17: b202-L-Bhu (bispecific antibody)
heavy: not shown
light: DIVLTQSPDSLAVSLGERATINCRASESVTIIGTNLIQWFQQKPGQPPKLLIYHASNLETGVPDRFSGSGSRTDFTLTISSLQAEDVAVYYCLQSRQIPRTFGGGTKVEIKRTVAAPSVFIFPPSDEQLKSGTASVVCLLNNFYPREAKVQWKVDNALQSGNSQESVTEQDSKDSTYSLSSTLTLSKADYEKHKVYACEVTHQGLSSPVTKSFNRGECGGGGSGGGGSGGGGSGGGGSQVQLVESGGGVVQPGGSLRLSCAASGFTFSSYAMRWVRQAPGKGLEWVAGINTGSEIVVYANSVRGRFTISRDNSRDTLYLQMNSLRAEDTAVYYCATGLVSAEHDGIWGQGTQVTVSS

EC50 [8]: 2.7 nM
EC50 [9]: < 1 nM
B18: antibody m202 (antibody, V domains shown)
VH: QVQLQQPGTELVKPGASVKLSCKASGYTFTSYWMHWVKQRPGQGLEWIGNINPSNGDTNYNEKFKSKATLTVDKSSSTAYMQLSSLTSDDSAVYYCARATYGSYGYFDVWGTGTAVTVSS
VL: DIVLTQSPASLAMSLGKRATISCRASESVTIIGTNLIQWFQQKPGQPPKLLIYHASNLETGVPARFSGSGSRTDFTLTIDPVEEDDVAIYYCLQSRQIPRTFGGGTKLEIK

EC50 [2]: 7.5 nM
EC50 [3]: 7.5 nM
B19: antibody m107-hu (antibody, V domains shown)
VH: QVQLVQSGAEVKRPGASVKVSCKASGYTFSAYTIHWVKQRPGQGLEWIGYINPSNDFAKYIQKFKDKVTITADKSTSTAYMELNSLRSEDTAVYYCARVDYYGGSYRWYLDVWGQGTTVTVSS
VL: DIVLTQSPATLSLSPGERATLSCRASQSISNNLHWYQQKPGEAPRLLIKYTSQSISGIPARFSGSGSGTDFTLTISSLEPEDFAVYFCQQSNSWPIFTFGQGTKLEIK
notes: Humanized m107

EC50 [4]: 1.5 nM
B20: b202-H-Bhu-D2hu (bispecific antibody)
heavy: not shown
light: DIVLTQSPDSLAVSLGERATINCRASESVTIIGTNLIQWFQQKPGQPPKLLIYHASNLETGVPDRFSGSGSRTDFTLTISSLQAEDVAVYYCLQSRQIPRTFGGGTKVEIKRTVAAPSVFIFPPSDEQLKSGTASVVCLLNNFYPREAKVQWKVDNALQSGNSQESVTEQDSKDSTYSLSSTLTLSKADYEKHKVYACEVTHQGLSSPVTKSFNRGEC
notes: as for B3

Continued, binder first:

B4: antibody D1hu (VHH)
VHH: EVQLVESGGGLVQPGGSLRLSCTASGRDFLTYGMGWFRQAPGKELEFVASINWSGSMTYYADSVKGRFTISRDNAKNTVYLQMNSLRAEDTAVYICAARRGAVTYASSNEYEHWGQGTQVTVSS
notes: Humanized anti-PD-L1 nanobody
EC50 (human PD-L1 [5]): 0.18 nM
IC50 (PD-L1-Biotin): 2.6 nM
IC50 (human PD-L1 [6]): ~1.5 nM

B5: antibody Chu (VHH)
VHH: B4 VHH with T23A, E44G, L45R, R87K, Q119L
notes: Humanized anti-PD-L1 nanobody
IC50 (PD-L1-Biotin): 1 nM
IC50 (human PD-L1 [6]): ~3.2 nM

B6: antibody C (VHH)
VHH: B4 VHH with L11S, P14T, T23V, L45R, R87K, A88P, E89G
notes: Anti-PD-L1 alpaca nanobody
EC50 (human PD-L1 [7]): 0.042 nM
IC50 (PD-L1-Biotin): 1.68 nM
IC50 (human PD-L1 [6]): 4.15 nM

B7: antibody D (VHH)
VHH: B4 VHH with P14A, G16D, L45R, R87K, A88P, E89G
notes: Anti-PD-L1 alpaca nanobody
EC50 (human PD-L1 [7]): 0.039 nM
IC50 (PD-L1-Biotin): 2.1 nM
IC50 (human PD-L1 [6]): 4.76 nM

B8: antibody D2hu (VHH)
VHH: B4 VHH with T23A, E44G, T78S
notes: Humanized anti-PD-L1 nanobody
EC50 (human PD-L1 [5]): 0.29 nM
IC50 (PD-L1-Biotin): 12 nM

B9: antibody B (VHH)
VHH: QVQLVESGGGLVQPGGSLSLSCVASGFTFSSYAMRWVRQAPGKEPEWVAGINTGSEIVVYANSVRGRFAISRDNARDTLFLQMNSLKPEDTAVYYCATGLVSAEHDGIWGQGTQVTVSS
notes: Anti-PD-L1 alpaca nanobody
EC50 (human PD-L1 [7]): 0.031 nM
IC50 (PD-L1-Biotin): 2.08 nM
IC50 (human PD-L1 [6]): 3.35 nM

B10: antibody Bhu (VHH)
VHH: B9 VHH with L11V, S19R, V23A, E44G, P45L, A69T, A75S, F80Y, K87R, P88A
notes: Humanized anti-PD-L1 nanobody
EC50 (human PD-L1 [5]): 0.18 nM
IC50 (PD-L1-Biotin): 3.4 nM
IC50 (human PD-L1 [6]): ~1.7 nM

B12: antibody A (VHH)
VHH: QVQLVESGGGLVQAGGSLRLSCAASGRSFSSSGMGWFRQAPGKDREFVATINSSGGDTYYRDSVEGRFTTSRDNAKNTMSLQMNDLKPEDTAVYYCAAKEGGGPSSIPAIYDYWGQGTQVTVSS
notes: Anti-PD-L1 alpaca nanobody
EC50 (human PD-L1 [7]): 0.089 nM
IC50 (PD-L1-Biotin): 1.02 nM
IC50 (human PD-L1 [6]): 3.95 nM

B13: antibody Ahu (VHH)
VHH: B12 VHH with L11V, A14P, D44G, A75S, S80Y, D85S, K87R, P88A, Q119L
notes: Humanized anti-PD-L1 nanobody
EC50 (human PD-L1 [5]): 0.051 nM
IC50 (PD-L1-Biotin): 4 nM
IC50 (human PD-L1 [6]): ~1.8 nM

B14: antibody E (VHH)
VHH: B12 VHH with R61A, Y111F
notes: Anti-PD-L1 alpaca nanobody
EC50 (human PD-L1 [7]): 0.053 nM
IC50 (PD-L1-Biotin): 2.54 nM
IC50 (human PD-L1 [6]): 2.98 nM

B15: antibody m109 (antibody, V domains shown)
VH: B16 VH with Q3K, R19K, S78T, R87K, A88S, T91R, V93I
VL: B16 VL with T22S, T78N, N80H, E109D, I110L
EC50 [8]: > 5 nM
EC50 [9]: < 1 nM
